This note sets out measurements from patent US10106577B2, “Agonists of neurotrophin receptors and their use as medicaments” (BIONURE FARMA, S.L., priority 2010, dated 2018).

Data set [1] concerns SH-SY5Y cells. Put plainly: Parkinson's disease in vitro model (MPTP stress, MTT). The conditions noted are these: MPTP 100 μM, 24 hrs; pre-treated 3 hours; BDNF 20 ng/ml. The class given is cell-based, human. The procedure: The human neuroblastoma cell line SH-SY5Y was maintained in culture with 50% Ham's F12 medium and 50% EMEM medium, supplemented with 10% FBS, […] L-glutamine and 1% penicillin/streptomycin. The cell culture was maintained in a humidified atmosphere of 95% air and CO2 at 37° C.
The SH-SY5Y cells after differentiation to neuronal phenotype with retinoic acid, were pre-treated for 3 hours with the test compounds at different concentrations (20 ng/ml, 100 ng/ml, 2 μg/ml, 20 μg/ml and 50 μg/ml) or BDNF (20 ng/ml) as a positive control. Then 1-methyl-4-phenyl-1,2,3,6-tetrahydropyridine (MPTP) (100 μM) was added and incubated for 24 hrs. The number of surviving cells was determined the day after by 3-(4,5-dimethylthiazol-2-yl)-2,5-diphenyltetrazolium bromide (MTT) assay.

For data set [2], the system named is JNK. Description: Luminex signalling assay in SH-SY5Y. The class given is cell-based, human. As to conditions: G79 100 ng/ml and 20 μg/ml, BDNF 20 ng/ml; 30 min, 1 h, 2 h, 6 h. The text has this: (§1) The human neuroblastoma cell line SH-SY5Y was used to perform Luminex signalling assays using the 10-Plex MAPK/SAPK Signaling Kit-Phosphoprotein (Millipore). This cell line expresses the TrkB receptor and the MAPK/SAPK signalling pathway is typically activated by the tyrosinkinase receptors. The phosphoprotein antibodies included into the kit are the following: ERK/MAP kinase (Thr185/Tyr187); STAT-1 (Tyr701); JNK (Thr183/Tyr185); MEK-1 (Ser212); ATF-2 (Thr69/71); p53 (Ser15); HSP27 (Ser78); c-Jun (Ser73); p38 (Thr180/Tyr182), p70 S6 kinase (Thr412); IkBα (Ser32) (purchased from Millipore).
(§2) The cells were propagated and then seeded into 24-well plates (30.000 cell/well). After 24 hours, the cells were treated with two different concentrations of NGF-receptor agonist G79: 100 ng/ml and 20 μg/ml. After adding G79 into the medium, the cells were collected in the lysis buffer of the kit at the following time points: 30 min, 1 h, 2 h, and 6 h. The assay was performed in this way to assess both time and dose effects comparing the treated samples with the untreated cells used as negative controls (unstimulated SH-SY5Y cells). BDNF was used as positive control at the concentration 20 ng/ml, which is the best working concentration known in literature. In the Luminex plate, each sample was added into a well in duplicate. After adding all the samples, the specific positive and negative controls of phosphorilation, included in the Luminex kit, were added. The assay buffer was also added in duplicate, as a background controls.
(§3) In the circles are the activated factors, while in the grey circles are the tested factors. Its effects of the SY-SY5Y cell line in the phosphorilation of several pathways were assessed using xMAP assay from Luminex. […] The levels of activation are expressed as Median Fluorescence Intensity (MFI).

The subject of data set [3] is ATF-2. Put plainly: Luminex signalling assay in SH-SY5Y. The class given is cell-based, human. As to conditions: G79 100 ng/ml and 20 μg/ml, BDNF 20 ng/ml; 30 min, 1 h, 2 h, 6 h.
Excerpt: as §1, §2, §3

For data set [4], the system named is HSP-27. Put plainly: Luminex signalling assay in SH-SY5Y. The class given is cell-based, human. The conditions noted are these: G79 100 ng/ml and 20 μg/ml, BDNF 20 ng/ml; 30 min, 1 h, 2 h, 6 h.
Excerpt: as §1, §2, §3

In data set [5] the test system is STAT-1. Put plainly: Luminex signalling assay in SH-SY5Y. The class given is cell-based, human. As to conditions: G79 100 ng/ml and 20 μg/ml, BDNF 20 ng/ml; 30 min, 1 h, 2 h, 6 h.
Excerpt: as §1, §2, §3

Data set [6] deals with NSC-34 cells. Put plainly: In vitro model of ALS, serum deprivation of motoneuron-like cells (MTT). The class given is cell-based, mouse. The conditions noted are these: BDNF 20 ng/ml; serum deprivation 48 h. The procedure:
Mouse motoneuron-like cells NCS-34 were cultured in DMEM (Gibco) supplemented with 10% heat inactivated FBS and 1% penicillin/streptomycin. The cell culture was maintained in a humidified atmosphere of 95% air and CO2 at 37° C.
The nutritional deprivation stress in motorneurons was conducted as described previously in Masahito T. et al., J. Neuropathol. Exp. Neurol. 65(8):816-825 (2006). To assess the effect of trophic stress condition on ALS, the presence of apoptosis was investigated using serum deprivation. NSC-34 cells were seeded in 24-well poly-lysinated plates at 30,000 cells/well and preincubated for 24 h in DMEM plus 10% FBS with various doses of G79, G80, and G81 (20 ng/ml, 100 ng/ml, 2 μg/ml, 20 μg/ml, 50 μg/ml), and G-CSF (2 μg/ml) or BDNF (20 ng/ml) which both were used as positive controls (Masahito T. et al., ibid; Elliot J. L., Neurobiology of Disease 6:310-320 (1999)). Then, the medium was removed and replaced with fresh DMEM without FBS. After 48 h, cell viability was assayed by MTT assay, as described previously.

B1: BDNF: brain-derived neurotrophic factor, neurotrophin used as positive control (protein, UniProt P23560 19-247, looked up)
Neurotrophic factor BDNF …: APMKEANIRGQGGLAYPGVRTHGTLESVNGPKAGSRGLTSLADTFEHVIEELLDEDQKVRPNEENNKDADLYTSRVMLSSQVPLEPPLLFLLEEYKNYLDAANMSMRVRRHSDPARRGELSVCDSISEWVTAADKKTAVDMSGGTVTVLEKVPVSKGQLKQYFYETKCNPMGYTKEGCRGIDKRHWNSQCRTTQSYVRALTMDSKKRIGWRFIRIDTSCVCTLTIKRGR
For B1, the “protection of neuronal cells against MPTP (surviving cells, MTT)” value in data set [1] is “significant protection of neuronal cells”. In data set [2], the “JNK phospho-activation (MFI) compared to unstimulated control” value was “significant JNK activation at 2 h after treatment”. Further, in data set [3], the “ATF-2 phospho-activation (MFI) compared to unstimulated control” value is given as “significant ATF-2 activation at 2 h after treatment”. Moreover, the “HSP-27 phospho-activation (MFI) compared to unstimulated control” value in data set [4] is listed as “does not activate HSP-27”. Moreover, in data set [5], the “STAT-1 phospho-activation (MFI) compared to unstimulated control” value is listed as “did not activate STAT-1”. Further, the “cell viability, percentage relative to the control without stress” value in data set [6] is 80.62±5.2%.
